Data taken from paper PMC3935488.

Columns and labels:
[1] = molecular target: human rod outer segment guanylate cyclase 1 (ROS-GC1), wildtype (human) (UniProt Q02846)
[2] = molecular target: human rod outer segment guanylate cyclase 1 (ROS-GC1), mutant P575L (human) (UniProt Q02846)

Row | EC50 of guanylate cyclase activation (cGMP produced) with 0–20 μM Ca2+-free, Mg2+-bound GCAP2, HEK cell membranes, 30 min [1] | EC50 of guanylate cyclase activation (cGMP produced) with 0–20 μM Ca2+-free, Mg2+-bound GCAP2, HEK cell membranes, 30 min [2] | EC50 of guanylate cyclase activation (cGMP produced) with 0–20 μM Ca2+-free, Mg2+-bound GCAP1, HEK cell membranes, 30 min [1] | EC50 of guanylate cyclase activation (cGMP produced) with 0–20 μM Ca2+-free, Mg2+-bound GCAP1, HEK cell membranes, 30 min [2] | Binder
1 | 8.34 µM | 7.44 µM |  |  | bovine guanylate cyclase-activating protein 2 (GCAP2), myristoylated (natural protein, myristoylated (degree of myristoylation typically higher than 90%)) MGQQFSWEEAEENGAVGAADAAQLQEWYKKFLEECPSGTLFMHEFKRFFKVPDNEEATQYVEAMFRAFDTNGDNTIDFLEYVAALNLVLRGTLEHKLKWTFKIYDKDRNGCIDRQELLDIVESIYKLKKACSVEVEAEQQGKLLTPEEVVDRIFLLVDENGDGQLSLNEFVEGARRDKWVMKMLQMDLNPSSWISQQRRKSAMF
2 |  |  | 2.93 µM | 3.32 µM | bovine guanylate cyclase-activating protein 1 (GCAP1), D6S mutant, myristoylated (natural protein, myristoylated (degree of myristoylation typically higher than 90%)) MGNIMSGKSVEELSSTECHQWYKKFMTECPSGQLTLYEFRQFFGLKNLSPWASQYVEQMFETFDFNKDGYIDFMEYVAALSLVLKGKVEQKLRWYFKLYDVDGNGCIDRDELLTIIRAIRAINPCSDSTMTAEEFTDTVFSKIDVNGDGELSLEEFMEGVQKDQMLLDTLTRSLDLTRIVRRLQNGEQDEEGASGRETEAAEADG
